The data set can be described thus: soluble fraction after stress (log2 fold change); higher = more stays soluble; pooled small domains, quantitative proteomics. To be noted: stress: 50 degC. An outline of the steps:
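Pooled custom libraries of small protein domains were each held under stress at 50°C. The read-out, high-throughput quantitative proteomics, tracked how much of each protein stayed soluble. This is reported as a base-two log fold change used to indicate aggregation propensity. Higher values mean more protein remains in solution.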
“HMKNEQIFIVRPDAEGTRLDQWLAAQMASSEEAPSRMQIQRWIKAGLVEGQGTLNPARRIEAGESYTVKPG”: the “soluble fraction (log2)” value was 0.0493.

As for “HMSLTMPKLIGMHLFQAERTLNYYGFQYKVEGPDSASVVIDQYPKEGVTVDPHYPITLKIGPSA”, the “soluble fraction (log2)” value was -0.158.

Regarding “HMFTEEQMDWLRLIKDHIVASLSILPEDLELTPFDRKGGLLGFYDAFGDEYEKILQEMNEELVA”, the “soluble fraction (log2)” value is -0.588.

“HMKNLADNIVALRKKHGLSQEQFAEKIDVTRQAVSNWERRIATPDVETIDLIAKLFDTDLTALVNG”: the “soluble fraction (log2)” value is -0.0311.

For the sequence “HMGFPAPFDGKAVAELRRRLGLTRRGLAEELSVSPSTVDKWEQGDVALRSPALTILKILWHQGLKALPP”, the “soluble fraction (log2)” value is -1.52.

Consider “HMKHYIDFIAEQLKTLTAIPSPSGYTKNATDYLMKLLQDMGYEPKLSRKGNVFVTLGGDGEPLVLAAHVD”, for which the “soluble fraction (log2)” value is -0.114.

On to “HMKEIYIDRGKEALEKELRKRKIPFQEFLSKENTNLLFDTLKIPSHDLEELYLEIGNGKHAASTVVNTVY”, for which the “soluble fraction (log2)” value turned out to be 0.136.

Regarding “HMGGEAEVLQSIDEGREVEVRSVAADGSAEVIYRGARWRARAAVGSLAAGRWTIGRVDGTELVLEK”, the “soluble fraction (log2)” value is -0.0207.

In the case of “HMKRSFGYIRLLPSKRYQASYIGPDSQRHAAPETFTRKMDAEGWLSAERRLIEWDQWTSPEQRAAQARLD”, the “soluble fraction (log2)” value was -0.591.

As for “HMEQVLNVAVRRGELIMSSAAEQTVRIYSSAGSMVWQGKVSASDVTVELPSGVYVVNGKKVV”, the “soluble fraction (log2)” value is -1.19.

In the case of “HMNDMPELLSIKEASQWATEYLNKNVTTSNIAYLIQYGRIRKIGNNGSTQVLKDDLVKYYKDQK”, the “soluble fraction (log2)” value was -0.139.

As to “HMRKSLGEIVFDRMERAIKSGAYSPDERLPTELDLAAEFEVSRPVIRDALKRLRERGLIYSRQGAGSFVRA”, the “soluble fraction (log2)” value is -0.499.

In the case of “HMKHVENLSDEKTIQAIQENPYMQYLLGLSKFTEKPVFVPELFVLIRKRLDQDFFNMLTLILAEADG”, the “soluble fraction (log2)” value amounted to 0.143.

For “HMNKPKIIINSVDDSVFSDYVKDSLSIAEVARSIGIDNNKINTSVYREIHKRIDSLKLDTSHFTGGAWN”, the “soluble fraction (log2)” value was -0.174.

Regarding “HMKKPKTVLSEEQKEFIINQAQDGVSAYDIARILFPSVNVTNLSKEVIDVAEFIRDTDIKLLADSE”, the “soluble fraction (log2)” value amounted to 0.0694.

Regarding “HMFVNADEIAKGLSPFNPSSVAIEAGRLMLKRIGELLSAGVSFSVETTLSTRSYINLIQQAQNQGYSVSL”, the “soluble fraction (log2)” value was not below 0.62.

For “HMGVSDDMARGVVRARQFLSDFAAVPLDRMTPAEAVARARQLKSELETDAKHSPWLLDVLSNA”, the “soluble fraction (log2)” value was -0.0848.

With “HMDAPLIIAETRVDVPDATVSDAVMMLDLRNTNALLFKNSGSGVLNMVYRRGDGTIGWGEPQ”, the “soluble fraction (log2)” value was -0.0172.

As to “HMKDIIVLGAIQAGIKKFDKIQKMTQIEPEELNSILEQLENRGFIQVAEKSGLLGKKIEILVTEKGSNEVD”, the “soluble fraction (log2)” value came to 0.442.

For the sequence “HMGAAIEYGDRGNTVLQAQRLLIARGYMAGSADGIYGRQMEQAVKRFQKEQGLPESGVVDRRTLQVLIRSR”, the “soluble fraction (log2)” value is -0.626.

Take “HMAKSKYETHVLPNLDKIIKWAKAGATAKEIAANLHIAYSTFRKYLDEGQEGDERYAALSAAFAQA”: the “soluble fraction (log2)” value came out at 0.321.

Consider “HMGNYRVIKWGMQGDDVKLMQQMLINRGYVLSATGKYASRTLKAIMAFQEANGLKADGIVGKRTWNKLL”, for which the “soluble fraction (log2)” value is -2.66.

As for “HMNYAVTAARRESILNAALEIFGKSGYNGSSVKQVALAVGMTEAGVLHHFGTKSNLLIEVLRV”, the “soluble fraction (log2)” value is not below 0.62.

For the sequence “HMGKQPLYEQLVDLLRDRIENDMETGELLPSERKLAHHFGLSRTTVRLAMDRLETLGLITRVHGKDTFVAE”, the “soluble fraction (log2)” value is -1.17.

“HMATAADLLQSATGVPRSDALLLLAKLLGVAKERLIAHPETVVSEKTQATFSDWIERVRGGFPTTYLLG”: the “soluble fraction (log2)” value was -0.0115.

Take “HMREPIPVPSRPIRAGDLVEIPGTNRPAEVTAVKGDRLVLKAGVLSMTVKNDEVRLIEDDERAAM”: the “soluble fraction (log2)” value is 0.0715.

Consider “HMTNADRYIGQEATVTEKISNELSTGAVRIGGLVWTARTVDNSEAEEGERVTVEAIEGAKLLVKRR”, for which the “soluble fraction (log2)” value was -0.0108.

For the sequence “HMPAPAPDIPYHSRVSVRRADGFYEGTWTNTAPILDYTGRWMVNVSLGGKRVFVPVEEVVVH”, the “soluble fraction (log2)” value is -0.862.

“HMGIRYQLADDVTDEQITAMTGKKAKIAAAIKAAGSAVSKMNVAGEMGYDKQNPINKDFMELVDAGIIVPS”: the “soluble fraction (log2)” value amounted to 0.00228.

Take “HMADFIKEIKTNNPRQLLKSILSSFMPRALILELEMLLWNDLKSKPIGEWSNTQIENVGKLLNNWILKPAA”: the “soluble fraction (log2)” value is 0.0698.

As to “HMNILNFSENIIKLRHKKGITQEELADFVGVTKASVSKWETKQSLPDIMLLPRLAAYFDVTVDELLGYEP”, the “soluble fraction (log2)” value was found to be 0.0236.

As to “HMAVKNAQIDVQQFFYSKSGEVDFGRKIKAIQSHFTPERLQSFTAAVPPSQWVSQLQVMWDSL”, the “soluble fraction (log2)” value was -1.39.

As for “HMRPLISQTLRIDRGEGDIAGPLGVLAKEYPHLSMGSYPFQKDGIYGAHVVIRGSDPGMVEAAMDKLKAAF”, the “soluble fraction (log2)” value came out at 0.018.

As for “HMGPESKLTDAIKDYIYALYENLKGKSKFRNTIIEEVKKLYGVDISRESIRRVVNQKTDAETTENDDDEKA”, the “soluble fraction (log2)” value was not below 0.62.

For “HMGFSDDEHNALADADLKKALEVTTNKSETQYNIAKLIYSYIISLGDKKPYGDWSYDKALSIIHDA”, the “soluble fraction (log2)” value was found to be 0.0519.

For “HMFQLSNEAKQQVLGELKRYESKQSAVLPALYIGQKDNKGHITPEVIRELSKVMDIPESQINEVFTFYTM”, the “soluble fraction (log2)” value was -0.119.

Regarding “HMARAPIYPDGLTQREVEVLSLVAAGKTDREIAEELFIALRTVTTHVGNILNKIGAANRTEAAGYATRQGL”, the “soluble fraction (log2)” value is -0.459.

As to “HMNPAYTDSRMKTFLEELPVMKASLSQKHVTRFLVWQEYIGRHPDGYGKSQFFYHLKQNLVAAKG”, the “soluble fraction (log2)” value was -0.56.

“HMDRVSEITLTRLRDYAADGQVRTATLTHRTNVVTGTLRDGRRFSAGVPPMYGDELTTFLLDNGVRVDSDN”: the “soluble fraction (log2)” value was -0.167.

For the sequence “HMYGVAEFDEKGNVLSIEEKPVQPKSNYAVVGLYFYPNKVVGVASGIKPSARGELEITTVNQTFLRDEELK”, the “soluble fraction (log2)” value is 0.0827.

With “HMEKLNYSISNEEQGQRIDKYLSLMIEGKSRSFIQGLIDDKKVMANGKVIKSNYKLKNNDEITVEMPDPI”, the “soluble fraction (log2)” value is -0.155.

On to “HMVEIGENIKKLRKAKRMTQKEVANQLNVTPQTISKWERNISYPDLDMLVKLSQLFHISTDALL”, for which the “soluble fraction (log2)” value is -0.0765.

“HMYLEARVKSTTPILSKPNELGKSLGKLYTNDFVALVSLHKNGLDSYYRTANGGYINAADVVIDRDV”: the “soluble fraction (log2)” value is -0.663.

As to “HMPDAIPLETIIKNVNVLAGFLINSKTFTEDDIVMAYNNIMKIKGDHTDEKTLTNDVYTLLTEMN”, the “soluble fraction (log2)” value is -0.469.

As for “HMNHLLYPNPANNFIWIKNSTSNTAVIYNLQGVMSKVEVSEEGKIDISRFSPGLYMIKQGERIYKFTIA”, the “soluble fraction (log2)” value is -1.34.

Turning to “HMRRRKPLVSYEYGTRVYAPSEGEPRYRVVATDADGQRVFAKFSSEEAARHRAREIEGRLATS”, the “soluble fraction (log2)” value is -0.00468.

As for “HMGPAYEKIVANGQTFYRYNVKKGEGLMAVSRTFNVSVNDILKYNPSAASGLKDGQELLIPVIDDA”, the “soluble fraction (log2)” value was 0.164.

On to “HMDQDLGFLINKYFELGKDYNTLVEIYEKIKEYIASIDKKMLEYTKNFTIEQLKKWLDDGTINNIILTLG”, for which the “soluble fraction (log2)” value is -0.142.

As for “HMQAKQVAIPDVANYSVTDAIKKLQDAGFIVSDEQREEANETVSEGKVSRTSPAAGSIRKEGTEIILYKSL”, the “soluble fraction (log2)” value was determined as 0.198.

With “HMLSAEAAAARTAISTLSEDQQRVLGLSIQRGLVHEQIARATGLPLGTVKTHIRRGLIKVREALEAQAAG”, the “soluble fraction (log2)” value was -0.00728.

As to “HMKDPSLEHIDALAGKPFQAFPGQDHRAHITAHLNFMSTNMVRNNPSIMAAIQKNILEHISLMAQEQIQL”, the “soluble fraction (log2)” value is -0.783.

With “HMGDTPVDFSEFIRWVDTGVVDRVELTGNEIVGTSSSGERFSTYAPPQYEGLGNKLIERDIVVVATAA”, the “soluble fraction (log2)” value is -0.164.

Consider “HMLNDKLQTLFSLFPAVDKDLKKKGVTRQILWEQYKRNHPDGVGRSQFNYYYAQWKDQVNPT”, for which the “soluble fraction (log2)” value was -1.47.

With “HMGASLVIVPGAGFLRVSASSQTRLDVYSITGMRVRSVDFEPGTTEIELPAGFYIAGGRKFFV”, the “soluble fraction (log2)” value is -1.4.

In the case of “HMQSFIEELLPVVDNFERSLAVVDPSDEIKNFLKGYEMIYNQLMEVLKSQGVEVIKTEGEEFDPNFHQA”, the “soluble fraction (log2)” value is 0.0366.

For “HMDYNLTKNQKIVFNLLQNSGEPLKAYTILESLKREGLKSPLQVYRALDKLVELGIIHKIESQNSFI”, the “soluble fraction (log2)” value was -0.45.

Consider “HMQGQVLQETARKARSQLDSEIPGFNDALYQNLIKSSENYGYKAEEVAQWVDPRAIKVLNDAYQFQQLKAG”, for which the “soluble fraction (log2)” value was -0.0765.

Consider “HMSDPSRKADFIAALSSLGGSAGNGKLREQLGWDEPTYDAVKQTLLDEGAITNGRGRGGSVALAG”, for which the “soluble fraction (log2)” value is not below 0.62.

As to “HMNRMKLLREQHNLSQTDLAKILNISRQSYNFYENEKRDPDTTMLIRIADFFNVSLDYLLGRTNN”, the “soluble fraction (log2)” value is -1.66.

As for “HMDQQTKFKTALAALAASAETKDRKLTKADVKEFLEDMDLGEEQMKLVYAYLASKHIHVEGAE”, the “soluble fraction (log2)” value came to 0.178.

Regarding “HMDDGNHTEYIVLEKAKFYDEAGEYEEGRDLVLSFDKYQDNWKLVYTLGVFNKKLNNLEEARKYYKQALE”, the “soluble fraction (log2)” value is -0.0519.

With “HMRYNPETTAGRRGLIIKMLDEYGQVNVNELSRYFNVSEVTVRNDLAYLERKNLLIRARGGAIKTE”, the “soluble fraction (log2)” value is -0.941.

“HMGVAAEDPDEAEKGAHSLKSSAANVGAEVVRGLAGEIESAASSGDVEAVRTILPGLEDAYSQAITDLET”: the “soluble fraction (log2)” value is 0.0162.

As for “HMSSLTDNFVKALSYYLALSGKSKKEVADGIGIPPTTFSSWSNGKHLPDMDRLQNLATYLGAPVSEFFDFT”, the “soluble fraction (log2)” value was -0.0831.

“HMRININNASARQIADALPGVGLKTARDIKDFQTTLSGERYTRLDQLHSIKRVDWDEIFKADLVRV”: the “soluble fraction (log2)” value is -0.0293.

Regarding “HMASVLTGMLGRVTGELAPKGIVMVGNETWTAVSEDDSVIRIGEPVEVRSVEGLILTVFRRID”, the “soluble fraction (log2)” value was -2.53.

Consider “HMNFDLDSFKQRMTLDGLYFGNEKQDVIALNNLSERYQLTWFDVYQLAKETSSNHKILPKRILVKLQQ”, for which the “soluble fraction (log2)” value was -1.07.

In the case of “HMAIDYYQTLINLGYKLQDRGDYWQTSAIHRGGDNPTALQIYKNTGVWKDYVSGGGFKPFKALVEKSD”, the “soluble fraction (log2)” value was -0.802.

For the origin of these results see the domain aggregation screens of Martell et al. (2025).
